Results on six molecules are retold here after patent US20180172683A1 (published 2018).

Ends that are not written are not given here. * marks the point of attachment. Ser‑Gly linker = flexible serine-glycine linker, six amino acids long; Biotin = O=C1N[C@H]2[C@H](CS[C@H]2CCCCC(=O)*)N1

The target in assay [1] is T1, B-cell lymphoma extra-large protein (Bcl-xL), first 209 amino acids with N-terminal avitag (UniProt Q07817 1-209, biotin on the avitag (BirA biotin ligase); a non-biotinylated form was used as the excess competitor in solution in the off-rate assays).
T1 construct: range 1-209; Expressed in E. coli BL21(DE3); Used in solution (forward assays) or immobilized through biotin on streptavidin plates or beads (reverse assay, off-rate and HTSK experiments); not shown: His tag implied (pET24a NdeI/XhoI, Ni-NTA purification, anti-HIS probe)
Put plainly: radiolabeled HA-tagged peptide off-rate from immobilized Bcl-xL. The protocol: (§1) The radiolabeled peptides were allowed to bind to 30 pmol immobilized Bcl-xL for 1 hour in sample buffer (1×PBS, 1% (w/v) BSA, 0.1% (v/v) Tween 20, 10 μM biotin). The beads were magnetically separated, and washed 5× with sample buffer. The beads were resuspended in 1 mL of sample buffer containing 3 μM non-biotinylated Bcl-xL (˜100× molar excess relative to immobilized biotinylated Bcl-xL). At various time points, 100 μL of slurry was removed and the beads were magnetically separated and washed. The percent remaining at each time point was determined by dividing the counts per minute (cpm) on beads by total cpm (beads+washes). The peptide off-rate was determined by an exponential fit of the Percent counts on beads vs. Time (s).
The peptide ligands were made using a C-terminal HA tag, and affinity purified.

In assay [2] the target is T1, B-cell lymphoma extra-large protein …. In words: dissociation of radiolabeled construct from immobilized Bcl-xL with excess Bcl-xL in solution. As to the method: as §1
(§2) The Kd for the peptides is measured by the equilibrium ELISA/AAMP assays (Table 1). The off-rate for these peptides was obtained by measuring the dissociation rate for radiolabeled peptide-mRNA fusions bound to immobilized Bcl-xL. The on-rate was calculated based on the equilibrium Kd measurements and the radiolabeled off-rate.

The target is the same in assay [3]. In words: binding (equilibrium ELISA) Kd. As to the method:
ELISA Assays. […] Plates were washed 3× with wash buffer (1×PBS+0.1% (v/v) Tween-20) and blocked with 1×PBS+5% (w/v) BSA for two hours. […] After the capture ligand incubation, 100 μL of sample or standards were added in each well, and incubated for 1 hour at room temperature. Plates were washed, incubated with HRP-conjugated probe antibody (such as anti-HIS tag antibody) in sample buffer for 1 hour, washed, and incubated with TMB substrate (Thermo Scientific). Reactions were stopped after approximately 10 minutes with 2 M sulfuric acid, and the absorbance at 450 nm was measured via a plate reader (Molecular Devices). The ligand of interest, capture ligand, target protein, and probe ligand used in example ELISA assays performed are highlighted in the table below.
Enzymatic Kd Calculation Assay. The Kd values of ligands of interest were determined using a protocol modified from Friguet et al., Journal of immunological methods, 77, 305-319 (1985). The samples were prepared and analyzed by ELISA assay in a similar process as described above. The OD450 for the standards and their concentration values were fit to a four parameter logistic curve (standard curve). The concentration of the free Bcl-xL in solution (responsible for the signal) for each sample was calculated using the standard curve, and converted into percent of Bcl-xL bound by ligand in solution. […]
Background: ELISA stands for enzyme-linked immunosorbent assay.

Assay [4] shares this target. In words: equilibrium AMMP, monovalent model. As to the method: AMMP Assays. For the AMMP assays, 90 μL of each sample or standards was incubated with 30 μL of magnetic beads (12 μg of beads/mL) and fluorescein-labeled antibody (8 nM) in sample buffer for 1 hour. The experiment's run buffer was 1×PBS+1% (v/v) Tween-20+1% (v/v) heat-treated FBS (Invitrogen; FBS was heat treated for 15 minutes at 65° C. and filtered). BioScale Universal Detection Cartridges were used in performing all of the assays. The device was used per the manufacturer's instructions. The ligand of interest, capture ligand, target protein, and probe ligand used in example AMMP assays performed are highlighted in the table below.
A competing ligand of unknown Kd was incubated with the target and allowed to equilibrate. The target protein bound to the competing ligand is not anchored to the magnetic beads. Subsequent wash steps thereby […]. The Kd of interaction between the target protein and the competing ligand can then be determined by quantifying the amount of free target in solution.

For assay [5] the target is unchanged. In words: equilibrium ELISA, monovalent model. The protocol:
After the capture ligand incubation, 100 μL of sample or standards were added in each well, and incubated for 1 hour at room temperature. Plates were washed, incubated with HRP-conjugated probe antibody (such as anti-HIS tag antibody) in sample buffer for 1 hour, washed, and incubated with TMB substrate (Thermo Scientific). Reactions were stopped after approximately 10 minutes with 2 M sulfuric acid, and the absorbance at 450 nm was measured via a plate reader (Molecular Devices). The ligand of interest, capture ligand, target protein, and probe ligand used in example ELISA assays performed are highlighted in the table below.
Enzymatic Kd Calculation Assay. The Kd values of ligands of interest were determined using a protocol modified from Friguet et al., Journal of immunological methods, 77, 305-319 (1985). The samples were prepared and analyzed by ELISA assay in a similar process as described above. The OD450 for the standards and their concentration values were fit to a four parameter logistic curve (standard curve). The concentration of the free Bcl-xL in solution (responsible for the signal) for each sample was calculated using the standard curve, and converted into percent of Bcl-xL bound by ligand in solution. For each ligand, the values for all the tested concentration of Bcl-xL and peptide in solution were fit simultaneously to the monovalent equilibrium model below to obtain the dissociation constant Kd (in which [C]EQ, [T]₀, [L]₀ represent the concentration of the target-ligand complex at equilibrium, the initial concentration of the target protein, and the initial concentration of the ligand, respectively).
The equilibrium assay is a modified version of the method described by Friguet et al., supra. The samples were prepared and analyzed by ELISA assay in a similar process as described above.

The target is the same in assay [6]. In words: equilibrium ELISA/AMMP (value of Table 1 given again).
For assay [7] the target is unchanged. Put plainly: equilibrium ELISA and AMMP, monovalent model, known [L]0.
The target is the same in assay [8]. In words: calculated from the equilibrium Kd and the radiolabeled off-rate. The protocol:
as §2

Assay [9] has the same target. Put plainly: equilibrium ELISA and AMMP, monovalent model, Kd and [L]0 fit simultaneously.

B1: D1, radiolabeled in vitro translated peptide with C-terminal serine-glycine linker and HA tag (peptide)
peptide: MIAISTIYNYKKAADHYAMTK-{Ser‑Gly linker-HA tag}
modifications: also: 35S-labeled methionine
notes: not shown: flexible serine-glycine linker, six amino acids long; HA tag
Regarding B1, the koff in assay [1] and in assay [2] was 2e-06 s⁻¹ each time.

B2: E2, radiolabeled in vitro translated construct used for the off-rate of Table 3 (peptide, not shown: small tags and cut ends)
peptide: MIETITIYKYKKAADHFSMSMGSK
modifications: also: 35S-labeled methionine, C-terminal extension: Ser-Gly linker and HA tag, or mRNA fusion
As for B2, the koff (as a rule, a measure of how fast the partners let go of each other) in assay [2] stood at 1.6e-05 s⁻¹.

B3: Peptide D1 (synthetic, biotin-labeled) (peptide)
peptide: MIAISTIYNYKKAADHYAMTKGSK(Biotin)-NH2
modifications: N-terminus assumed
SMILES: CC[C@H](C)[C@H](NC(=O)[C@H](C)NC(=O)[C@@H](NC(=O)[C@@H](N)CCSC)[C@@H](C)CC)C(=O)N[C@@H](CO)C(=O)N[C@H](C(=O)N[C@H](C(=O)N[C@@H](Cc1ccc(O)cc1)C(=O)N[C@@H](CC(N)=O)C(=O)N[C@@H](Cc1ccc(O)cc1)C(=O)N[C@@H](CCCCN)C(=O)N[C@@H](CCCCN)C(=O)N[C@@H](C)C(=O)N[C@@H](C)C(=O)N[C@@H](CC(=O)O)C(=O)N[C@@H](Cc1c[nH]cn1)C(=O)N[C@@H](Cc1ccc(O)cc1)C(=O)N[C@@H](C)C(=O)N[C@@H](CCSC)C(=O)N[C@H](C(=O)N[C@@H](CCCCN)C(=O)NCC(=O)N[C@@H](CO)C(=O)N[C@@H](CCCCNC(=O)CCCC[C@@H]1SC[C@@H]2NC(=O)N[C@@H]21)C(N)=O)[C@@H](C)O)[C@@H](C)CC)[C@@H](C)O
notes: Solid phase Fmoc synthesis; Also the capture ligand of the forward assays for peptide ligands; also called D1 Pep; D1 Peptide
For the molecule B3, the Kd (as a rule, the free concentration of one partner at which half of the binding sites on the other are occupied at equilibrium, for simple one-to-one binding) in [3] stood at 0.009 nM; in assay [4], 0.012 nM; in assay [5], 0.007 nM; in assay [6], 0.0085 nM; in assay [7], 0.0085 nM; in assay [9], 0.014 nM. The kon – broadly, the second-order rate constant of association – in assay [8] is 240000 M⁻¹ s⁻¹.

B4: E1, radiolabeled in vitro translated peptide with C-terminal serine-glycine linker and HA tag (peptide)
peptide: MIETITIYNYKKAADHFSMSM-{Ser‑Gly linker-HA tag}
modifications: also: 35S-labeled methionine
notes: as for B1
For B4, the koff in assay [1] worked out at 7.4e-06 s⁻¹; in assay [2], 1.2e-05 s⁻¹.

B5: Peptide E2 (synthetic, biotin-labeled) (peptide)
peptide: MIETITIYKYKKAADHFSMSMGSK(Biotin)-NH2
modifications: N-terminus assumed
SMILES: CC[C@H](C)[C@H](NC(=O)[C@@H](NC(=O)[C@@H](NC(=O)[C@@H](NC(=O)[C@H](CCC(=O)O)NC(=O)[C@@H](NC(=O)[C@@H](N)CCSC)[C@@H](C)CC)[C@@H](C)O)[C@@H](C)CC)[C@@H](C)O)C(=O)N[C@@H](Cc1ccc(O)cc1)C(=O)N[C@@H](CCCCN)C(=O)N[C@@H](Cc1ccc(O)cc1)C(=O)N[C@@H](CCCCN)C(=O)N[C@@H](CCCCN)C(=O)N[C@@H](C)C(=O)N[C@@H](C)C(=O)N[C@@H](CC(=O)O)C(=O)N[C@@H](Cc1c[nH]cn1)C(=O)N[C@@H](Cc1ccccc1)C(=O)N[C@@H](CO)C(=O)N[C@@H](CCSC)C(=O)N[C@@H](CO)C(=O)N[C@@H](CCSC)C(=O)NCC(=O)N[C@@H](CO)C(=O)N[C@@H](CCCCNC(=O)CCCC[C@@H]1SC[C@@H]2NC(=O)N[C@@H]21)C(N)=O
notes: Solid phase Fmoc synthesis; also called E2 Pep
Consider B5, for which the Kd is 0.315 nM in assay [4]; 0.29 nM in assay [5]; 0.3 nM in [6]; 0.3 nM in assay [7]; 0.24 nM in assay [9]. In addition, in assay [8], the association rate constant (kon) was 53000 M⁻¹ s⁻¹.

B6: Peptide E1 (synthetic, biotin-labeled) (peptide)
peptide: MIETITIYNYKKAADHFSMSMGSK(Biotin)-NH2
modifications: N-terminus assumed
SMILES: CC[C@H](C)[C@H](NC(=O)[C@@H](NC(=O)[C@@H](NC(=O)[C@@H](NC(=O)[C@H](CCC(=O)O)NC(=O)[C@@H](NC(=O)[C@@H](N)CCSC)[C@@H](C)CC)[C@@H](C)O)[C@@H](C)CC)[C@@H](C)O)C(=O)N[C@@H](Cc1ccc(O)cc1)C(=O)N[C@@H](CC(N)=O)C(=O)N[C@@H](Cc1ccc(O)cc1)C(=O)N[C@@H](CCCCN)C(=O)N[C@@H](CCCCN)C(=O)N[C@@H](C)C(=O)N[C@@H](C)C(=O)N[C@@H](CC(=O)O)C(=O)N[C@@H](Cc1c[nH]cn1)C(=O)N[C@@H](Cc1ccccc1)C(=O)N[C@@H](CO)C(=O)N[C@@H](CCSC)C(=O)N[C@@H](CO)C(=O)N[C@@H](CCSC)C(=O)NCC(=O)N[C@@H](CO)C(=O)N[C@@H](CCCCNC(=O)CCCC[C@@H]1SC[C@@H]2NC(=O)N[C@@H]21)C(N)=O
notes: Solid phase Fmoc synthesis; also called E1 Pep
For the molecule B6, the Kd in [3] was 0.039 nM; in [4] it was 0.045 nM; in assay [5], 0.034 nM; in assay [6], 0.039 nM; in assay [7] it was 0.039 nM; in assay [9], 0.027 nM. Besides, the kon in assay [8] was 310000 M⁻¹ s⁻¹.
